One test deals with MDA-MB-231 cells. Description: Wound healing migration assay. It is filed as cell-based. Conditions: cancer cells treated directly with AD. From the text: FIGS. 5A and 5B illustrate the results of studies using a wound healing migration assay. CM-AD from osteocytes inhibits MDA-MB-231 cell migration.
FIG. 6 illustrates results of another wound healing migration assay.
Opening of osteocytic Cx43 hemichannels mediate a negative effect on cancer cell migration. Cx43 hemichannels in osteocytes are opened by administration of AD or FFSS. The opened hemichannels permit the release of various factors into the medium producing a conditioned medium (CM). The released factor(s) in the AD- or FFSS-treated CM decrease cancer cell migration as determined by soft agar and wound healing assays. An example of a soft agar assay is diagrammed in FIG. 3. […] The soft agar assay is an assay for anchorage-independent growth, as contrasted with anchorage-dependent growth. Only cancer cells can grow on soft agar and their growth on this matrix indicates the extent of the cancer cell proliferation.
In certain aspects the methods include incubating primary osteocytes or osteocyte cell lines with a test reagent in α-MEM for various periods of time and collecting the supernatant (conditioned media) at various time points. In certain aspects breast or prostate cancer cells are incubated with CM and cancer cell proliferation, migration, and invasion are determined.

The target of test [1] is Cx43 hemichannels in osteocytes (Homo sapiens, UniProt P17302). To be noted: Plotkin et al., 2002; cited from earlier work.
Chain of Cx43 hemichannels in osteocytes (P17302 whole entry): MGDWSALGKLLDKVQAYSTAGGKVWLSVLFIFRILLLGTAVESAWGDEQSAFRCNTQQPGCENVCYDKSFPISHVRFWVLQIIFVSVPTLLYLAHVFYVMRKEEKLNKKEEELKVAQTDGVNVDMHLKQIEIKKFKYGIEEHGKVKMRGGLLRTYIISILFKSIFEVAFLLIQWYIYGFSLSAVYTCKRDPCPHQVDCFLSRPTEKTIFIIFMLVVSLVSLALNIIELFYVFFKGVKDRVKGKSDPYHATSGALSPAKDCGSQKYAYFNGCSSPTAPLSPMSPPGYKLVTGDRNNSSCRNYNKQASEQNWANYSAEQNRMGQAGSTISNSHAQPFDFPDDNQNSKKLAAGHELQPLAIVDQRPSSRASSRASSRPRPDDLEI
For test [2], the target named is T1, Cx43 hemichannels (Mus musculus, UniProt P23242). Conditions: MLO-A5 osteoblasts, AD treatment.
T1 sequence (P23242 whole entry): as the sequence (P17302 whole entry) above, with D124E, I164V, K243R, S251T, A253P, A257S, Q263P, N341S, S344A, L347V counted along it
Description: Ethidium bromide dye uptake was conducted and quantified as compared to non-treated basal level of uptake. Study was carried out in calcium conditions. Low calcium conditions were used as control (opens hemichannels). […] MLO-Y4 osteocytic cells were treated with 20 μM AD for 30 min in the absence or presence of 1 μg/ml Cx43(E2) antibody. Ethidium bromide dye uptake assay was conducted and quantified as compared to non-treated basal level of uptake. The assays were carried out in the presence of calcium. Low calcium conditions were used as a control (opens hemichannels).
Test [3] concerns the target T2, gap junctions (HeLa cells transfected with Cx43) (Homo sapiens, UniProt P17302).
T2 construct: expressed in transfected cells; host or cells: HeLa cells
Description: Microinjection dye transfer (dye coupling) assay for gap junctions. It is filed as cell-based. Conditions: HeLa cells transfected with Cx43, mAbs for 3 h. On the procedure:
(§1) Dye uptake assay was performed in the presence of EtBr with or without mAbs for 20 min. (B) HeLa cells transfected with Cx43 were incubated with mAbs for 3 h and a signal cell was microinjected with AlexaFluor 488 to evaluate the extent of dye transfer assayed for gap junctions.
Dye coupling assay for gap junctions. MLO-Y4 cells were plated on collagen coated 35 mm dish and incubated with recording medium (HCO3^− free αMEM medium buffered with 10 mM HEPES). Cells were microinjected using a micromanipulator InjectMan NI 2 and Femtojet both from Eppendorf (Eppendorf) at 37° C. with alexafluor 350 (Invitrogen, Eugene, Oregon, USA) (10 mM in PBS). Dye transfer was measured after 2 minutes of alexafluor 350 injection. The index of dye coupling was scored counting the number of cells that were dye transferred. Dye coupling was observed under an inverted microscope equipped with Xenon arc lamp illumination and a Nikon eclipse (Nikon, Japan) (excitation wavelengths 330-380 nm; emission wavelengths above 420 nm).

Test [4] concerns the target T1, Cx43 hemichannels. Description: Dye uptake assay for hemichannel activity in low Ca2+ and Mg2+ media. It is filed as cell-based. More on the design: endogenous in cells; host or cells: MLO-Y4 osteocytic cells. Conditions: MLO-Y4 cells, mAbs for 20 min. On the procedure:
as §1
(§2) Dye uptake for hemichannel activities. Dye uptake measurements were evaluated using snap shot photographs. MLO-Y4 cells were plated on the collagen coated 35 mm dish and incubated with recording medium, HCO3^− free saline medium buffered with 10 mM HEPES salt composition in mM, 154 NaCl, 5.4 KCl, 1.8 CaCl2, 1.0 MgCl2, 5 Glucose. Medium with low concentration of divalent cation (low[X^2]) was added 0.5 mM EGTA but not CaCl2 and MgCl2. The recording or low[X^2] containing 50 μM EtBr for snap shot recording. Cells were exposed to 100 μM of EtBr during 5 min, then rinsed 3 times with PBS and fixed with 2% […]. At least 3 microphotographs of fluorescence fields were taken with a 10× dry objective in an inverted microscope (Carl Zeiss) with a rhodamine filter. The image analysis was made offline with the software image J. The average of pixel density of 30 random cells was measured.

The target in test [5] is T3, gap junction channels (Hela cells transfected with Cx43) (Homo sapiens, UniProt P17302).
T3 construct: expressed in transfected cells; host or cells: HeLa cells
T3 sequence (P17302 whole entry): as the sequence (P17302 whole entry) above
The experiment in a line: Parachuting dye transfer assay for gap junctions. It is filed as cell-based. To be noted: Hela cells transfected with Cx43, calcein red-orange-AM / Oregon green 488 BAPTA-2-AM. The method, then: FIG. 15 illustrates parachuting dye transfer assay showing M2 and M7, but not M1 blocks gap junction channels. Hela cells transfected with Cx43 was used for parachuting dye transfer experiments. Donor cells were incubated with 5 μM calcein red-orange-AM (790 Da) which is permeable to gap junctions and 5 μM Oregon green 488 BAPTA-2-AM (1752 Da) which is non-permeable to gap junctions for 40 minutes at 37° C. Donor cells were treated with trypsin and separated preloaded cells were layered (‘parachuted’) over the top of the unlabeled recipient cells at a 1:4 donor to receiver ratio. Cells were allowed to attach for 90 min. The cells were examined under a fluorescence microscope.
Cell parachute dye-transfer assay for gap junctions. MLO-Y4 cells were grown to confluence in 12 well plates. The donor cells were incubated with 5 μM calcein red-orange-AM (790 Da) and 5 μM Oregon green 488 BAPTA-2-AM (1752 Da) for 40 minutes at 37° C. Gap junction intercellular communication can be followed by simultaneously labeling cells with calcein red-orange as a gap junction permeable tracer dye and the gap junction channel impermeable dye Oregon green 488 BAPTA-2. Donor cells preloaded were remove form the plate by trypsinization. Preloaded cells were layered (‘parachuted’) over the top of the unlabeled recipient cells cultured in at a 1:4 donor to receiver ratio. Cells were allowed to attach for various periods 1 hours, and then carefully washed 3 times and fixed in fresh 2% PFA 10 min RT and rinse 3 times again. The cells were examined with a fluorescence microscope. For calcein red-orange transfer, the threshold was adjusted to clearly distinguish the dye-transfer boundaries. The dye transfer positive criterion was detecting the calcein red-orange/Oregon green 488 BAPTA-2 with contact cells calcein red-orange positive and Oregon green 488 BAPTA-2 negative. The dye transfer was almost undetectable (<1%). The images were taken in places where we found Oregon green 488 BAPTA-2 green positive cells.

Test [6] deals with T4, hemichannel opening in mouse bone osteocytes (Mus musculus, UniProt P23242).
T4 construct: from tissue; host or cells: tibial bone osteocytes of living WT mice (Cx43 cKO mice as negative control)
T4 sequence (P23242 whole entry): as the sequence (P17302 whole entry) above, with D124E, I164V, K243R, S251T, A253P, A257S, Q263P, N341S, S344A, L347V counted along it
Description: Evans blue dye uptake in mechanically loaded tibias in vivo. To be noted: 25 mg/kg injected 2 hr before Evans blue dye, tibia loaded 10 min. On the procedure: FIG. 17. […] Mouse IgG or Cx43(M1) mAb (25 mg/kg) was injected 2 hr before Evans blue dye injection Into WT and Cx43 cKO mice. 30 min after dye injection, left (L) tibias were mechanically loaded once for 10 min. Mice were euthanized and perfused with 50 ml PBS. Tibias were isolated and fixed and bone tissue sections were prepared. Bar, […]. The arrowheads indicate dye uptake.
Determining the effect a compound on the opening of hemichannels in osteocytes in bone tissue in vivo. One example of an in vivo assay to analyze hemichannels in osteocytes uses 3-4 month old mice or rats. The animals are weighed. A test reagent is introduced into the animal through intraperitoneal (IP) injection. After 2-4 hours, fluorescence tracer dyes (i.e. Evans blue, Alexa 594) are injected into lateral tail vein of the animal or by IP injection. Note: up to 1% of animal's body weight in volume can be injected. In certain aspects the animal is warmed prior to tail vein injection to dilate the tail vein. After 2-4 hours, the animal is scarified and tibial and femur bones free of muscle tissues are dissected and washed multiple times with PBS. […] The bone sections can be examined under fluorescence microscope and the degree of osteocytes in the bone taking up tracer dyes are quantified using Image J. […]

Test [7] concerns the target T1, Cx43 hemichannels. Description: Dye uptake after fluid flow shear stress in MLO-Y4 cells. It is filed as cell-based. More on the design: endogenous in cells; host or cells: MLO-Y4 osteocytic cells. Conditions: mAbs 20 min pretreatment, fluid flow shear stress 8 dynes/cm^2 10 min, 100 μM EtBr 5 min. The method, then:
FIG. 16. […] MLO-Y4 cells were pretreated with or without mAbs for 20 min. The cells were subjected to fluid flow shear stress at 8 dynes/cm^2 for 10 min and dye uptake was performed with 100 μM EtBr for 5 min. Cells were rinsed, fixed and images were taken under fluorescence microscopy.
as §2
Fluid flow shear stress to open hemichannels. Fluid flow was created by parallel-plate flow chambers separated by a gasket of defined thickness with gravity-driven fluid flow using a peristaltic pump. The thickness of the gasket determined the channel height, which was adjusted along with flow rate to generate stress levels of 16 dyn/cm^2. The circulating medium was α-MEM buffered with 10 mM HEPES.

This is an account of results in patent US12162937B2, “Methods of treating an inflammatory disorder by administering an antibody which binds to a connexin CX43 hemichannel” (BOARD OF REGENTS OF THE UNIVERSITY OF TEXAS SYSTEM, priority 2013, dated 2024).

Entries after “also recorded” stand apart in the source; their conditions may differ. Like-named read-outs stand apart in the source and are kept apart here.

T2 sequence (P17302 whole entry): as the sequence (P17302 whole entry) above

Take `NCCCC(O)(P(=O)(O)O)P(=O)(O)O` [AD, alendronate]: the “direct effect on migration of MDA-MB-231 cells” value with MDA-MB-231 cells is given as “does not have a direct effect; also recorded: not seen”. For the same molecule, the “opening of Cx43 hemichannels in osteocytes” value in test [1] was “induces the opening”. The “opening of Cx43 hemichannels in osteoblasts” value on Cx43 hemichannels [2] is recorded as “does not open”; on Cx43 hemichannels [2] (listed as alendronate), “do not appear to open”.

B1: M1: mouse monoclonal antibody, heavy chain SEQ ID NO:2, light chain SEQ ID NO:4 (antibody, listed as Mus musculus)
heavy: EVQLEQPGAELVKPGASVKLSCKASGYTFTSYYMYWVKQRPGQGLEWIGGINPSNGGTNFNEKFKNKATLTVDKSSSTAYMQLSSLTSEDSAVYYCTREGNPYYTMNYWGQGTSVTVSSAKTTPPSVY
light: DIVMTQTPASLAVSLGQRATISYRASKSVSTSGYSYMHWNQQKPGQPPRLLIYLVSNLESGVPARFSGSGSGTDFTLNIHPVEEEDAATYYCQHIRELTRSEGGPSWK
With B1, in test [3], the “blocking of gap junctions (AlexaFluor 488 dye transfer)” value was “not gap junctions”. Besides, in the test with Cx43 hemichannels [4], the “blocking of hemichannels (EtBr dye uptake)” value is recorded as “blocks hemichannels”. The “blocking of gap junction channels (parachuting dye transfer)” value (shortened to “blocking of gap junction channels”) in test [5] is given as “not”. For the same molecule, the “blocking of hemichannel opening induced by mechanical loading in osteocytes in vivo” value in test [6] is “blocks”. For the same molecule, the “blockage of hemichannel opening induced by mechanical loading” value (“blockage of hemichannel opening induced” for short) with Cx43 hemichannels [7] is reported as “blockage”.

B2: M2: mouse monoclonal antibody, heavy chain SEQ ID NO:6, light chain SEQ ID NO:8 (antibody, listed as Mus musculus, V domains shown)
VH: EVQLEQPGAELVKPGASVKLSCKASGYTFTSYYMYWVKQRPGQGLEWIGGINPSNGGTNFNEKFKNKATLTVDKSSSTAYMQLSSLTSEDSAVYYCTREGNPYYTMNYWGQGTSVTVSSAKTTPPSVY
VL: DIVMTQTPSSLSVSAGEKVTMSCKSSQSLLNSGNQKTYLAWYQQKPGQPPKLLIYGASTRESGVPDRFTGSGSGTDFTLTISSVQAEDLAVYYCQNDHSYPFTFGSGTKLEIKRADAAPTVS
Regarding B2, in test [3], the “blocking of gap junctions (AlexaFluor 488 dye transfer)” value is “blocks gap junctions”. For the same molecule, the “blocking of hemichannels (EtBr dye uptake)” value in the test with Cx43 hemichannels [4] is given as “not hemichannels”. Besides, the “blocking of gap junction channels” value in test [5] was “blocks”. Also, the “blockage of hemichannel opening induced” value with Cx43 hemichannels [7] is recorded as “not”.

B3: M7: mouse monoclonal antibody, heavy chain SEQ ID NO:10, light chain SEQ ID NO:12 (antibody, listed as Mus musculus)
heavy: LEQPGAELVRPGASVMLSCKASGYIFTTYWMHWLKQRPGQGLDWIGEISPSNGRSNYNKKFKSKATLTVDKSSSTAYMQLSSLTSEDSAVYYCARFDEGDFWGQGTTLIVSSAKTTAPSVYPLAPVCGDTTGSSV
light: DIVMTQTPASLAVSLGQRATISYRASKSVSTSGYSYMHWNQQKPGQPPRLLIYLVSNLESGVPARFSGSGSGTDFTLNIHPVEEEDAATYYCQHIRELTRSEGGPSWK
For the molecule B3, in test [5], the “blocking of gap junction channels” value was “blocks”. Also, in the test with Cx43 hemichannels [7], the “blockage of hemichannel opening induced” value is listed as “blockage”.
